# Measurements from publication PMC4078364, “Complete sucrose hydrolysis by heat-killed recombinant Pichia pastoris cells entrapped in calcium alginate” (Microbial Cell Factories, 2014).
# B1: BfrA (Thermotoga maritima β-fructosidase) (Thermotoga maritima MSB8) (protein)
# chain: MFKPNYHFFPITGWMNDPNGLIFWKGKYHMFYQYNPRKPEWGNICWGHAVSDDLVHWRHLPVALYPDDETHGVFSGSAVEKDGKMFLVYTYYRDPTHNKGEKETQCVAMSENGLDFVKYDGNPVISKPPEEGTHAFRDPKVNRSNGEWRMVLGSGKDEKIGRVLLYTSDDLFHWKYEGVIFEDETTKEIECPDLVRIGEKDILIYSITSTNSVLFSMGELKEGKLNVEKRGLLDHGTDFYAAQTFFGTDRVVVIGWLQSWLRTGLYPTKREGWNGVMSLPRELYVENNELKVKPVDELLALRKRKVFETAKSGTFLLDVKENSYEIVCEFSGEIELRMGNESEEVVITKSRDELIVDTTRSGVSGGEVRKSTVEDEATNRIRAFLDSCSVEFFFNDSIAFSFRIHPENVYNILSVKSNQVKLEVFELENIWL
# notes: secreted to periplasm of Pichia pastoris PpBfrA(4x); N-glycosylated, 58 and 53 kDa (51 kDa deglycosylated); assayed in heat-killed whole cells
# Substrate: OC[C@H]1O[C@@](CO)(O[C@H]2O[C@H](CO)[C@@H](O)[C@H](O)[C@H]2O)[C@@H](O)[C@@H]1O
# Test: DNSA reducing sugar assay, initial rates, Lineweaver-Burk
# Type: cell-based, Thermotoga maritima
# Settings: free (non-immobilized) heat-killed P. pastoris cells with periplasmic enzyme, 10-200 mM sucrose, 50 mM sodium acetate pH 5.5, 60 °C, cell-wall diffusion barrier
protein,measurement,value
B1,Km,99 mM
